What is called stoichiometry N is the number of molecules, sites or subunits per partner or assembly.

The source of these data is article PMC10140047.

For this test, the target named is T1, TwinStrep-BICD2 WT (mouse), Q921C5.
T1 chain: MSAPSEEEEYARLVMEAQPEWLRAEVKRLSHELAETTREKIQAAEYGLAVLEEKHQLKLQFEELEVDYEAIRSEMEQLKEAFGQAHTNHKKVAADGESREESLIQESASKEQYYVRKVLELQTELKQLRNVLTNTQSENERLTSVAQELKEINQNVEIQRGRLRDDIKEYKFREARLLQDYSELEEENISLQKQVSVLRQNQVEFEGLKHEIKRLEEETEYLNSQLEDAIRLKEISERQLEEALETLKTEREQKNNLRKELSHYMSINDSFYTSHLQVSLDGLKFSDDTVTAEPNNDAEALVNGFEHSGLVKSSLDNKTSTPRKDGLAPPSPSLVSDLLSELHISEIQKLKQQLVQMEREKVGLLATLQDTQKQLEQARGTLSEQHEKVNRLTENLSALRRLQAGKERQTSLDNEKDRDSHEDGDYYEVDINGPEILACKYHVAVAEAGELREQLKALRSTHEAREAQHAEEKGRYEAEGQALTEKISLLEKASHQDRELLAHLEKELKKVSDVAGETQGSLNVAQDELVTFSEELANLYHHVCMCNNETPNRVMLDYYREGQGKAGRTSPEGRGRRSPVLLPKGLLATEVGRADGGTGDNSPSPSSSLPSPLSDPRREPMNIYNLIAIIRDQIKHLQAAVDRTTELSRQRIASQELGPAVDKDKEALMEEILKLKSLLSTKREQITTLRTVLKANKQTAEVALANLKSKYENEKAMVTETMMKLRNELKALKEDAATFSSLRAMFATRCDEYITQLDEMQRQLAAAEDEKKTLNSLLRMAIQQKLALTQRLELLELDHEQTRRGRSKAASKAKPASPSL
The test is described as follows: SEC-MALS; purified TwinStrep-BICD2 WT and S102D; predicted MW of ~190 kDa. The conditions noted are these: remark: other sources report otherwise.

B1: TwinStrep-BICD2 WT, Q921C5 1-820 (natural protein)
chain: MSAPSEEEEYARLVMEAQPEWLRAEVKRLSHELAETTREKIQAAEYGLAVLEEKHQLKLQFEELEVDYEAIRSEMEQLKEAFGQAHTNHKKVAADGESREESLIQESASKEQYYVRKVLELQTELKQLRNVLTNTQSENERLTSVAQELKEINQNVEIQRGRLRDDIKEYKFREARLLQDYSELEEENISLQKQVSVLRQNQVEFEGLKHEIKRLEEETEYLNSQLEDAIRLKEISERQLEEALETLKTEREQKNNLRKELSHYMSINDSFYTSHLQVSLDGLKFSDDTVTAEPNNDAEALVNGFEHSGLVKSSLDNKTSTPRKDGLAPPSPSLVSDLLSELHISEIQKLKQQLVQMEREKVGLLATLQDTQKQLEQARGTLSEQHEKVNRLTENLSALRRLQAGKERQTSLDNEKDRDSHEDGDYYEVDINGPEILACKYHVAVAEAGELREQLKALRSTHEAREAQHAEEKGRYEAEGQALTEKISLLEKASHQDRELLAHLEKELKKVSDVAGETQGSLNVAQDELVTFSEELANLYHHVCMCNNETPNRVMLDYYREGQGKAGRTSPEGRGRRSPVLLPKGLLATEVGRADGGTGDNSPSPSSSLPSPLSDPRREPMNIYNLIAIIRDQIKHLQAAVDRTTELSRQRIASQELGPAVDKDKEALMEEILKLKSLLSTKREQITTLRTVLKANKQTAEVALANLKSKYENEKAMVTETMMKLRNELKALKEDAATFSSLRAMFATRCDEYITQLDEMQRQLAAAEDEKKTLNSLLRMAIQQKLALTQRLELLELDHEQTRRGRSKAASKAKPASPSL
B1: the stoichiometry N is 2.
